Where a SMILES comes first, the peptide text is derived from it. [ ]: non-standard residue; d: D form. The star is where a group is joined. 5FAM = O=C1OC2(c3ccc(O)cc3Oc3cc(O)ccc32)c2ccc(C(=O)*)cc21

The nature of series [1]: Sedimentation velocity AUC with fluorescence detection, labeled peptide alone. It is filed as physicochemical. The note with it: AUC-FDS, 60,000 rpm, 20 °C, 15 h, c(s) model; 0.2 μM FITC-D3 in 20 mM sodium phosphate, 50 mM NaCl pH 7.4, 0.0004% PEI; 0.33 μM FITC-Aβ42 in 55 mM Tris, 50 mM NaCl pH 7.4, 0.01% Tw20. How it is done: All measurements were performed using an XL-A analytical ultracentrifuge (Beckman coulter, Brea, CA, USA). […] All samples were prepared in 20 mM sodium phosphate, 50 mM NaCl (pH 7.4) containing 0.0004% PEI (w/v). Samples were then loaded into 3-mm double-sector titanium cells (Nanolytics, Potsdam, Germany), with each sector containing a 100 μL sample. The detection system uses an excitation laser at 488 nm and an emission cut-off filter at 505 nm to collect fluorescence signals. The amplification factor was adjusted to the same value for all samples for comparability. […] Data was acquired at 20 nm radial resolution. After thorough thermal equilibration the centrifugation was carried out at 60,000 rpm (289,000× g) at 20 °C for 15 h. Carrier proteins, such as albumin and kappa casein, are usually recommended to minimize unspecific surface adsorption for fluorescence-based AUC [56]. All sedimentation profiles were subjected to the software package SEDFIT (version 15.01b) for data evaluation. The data was analyzed with the continuous distribution c(s) Lamm equation model to obtain the sedimentation coefficient distributions. Fitting parameters (Table S1) including the buffer density and viscosity were determined using Sednterp (version 20130813BETA). […]

For series [2], the target named is T1, Aβ42 (Homo sapiens, UniProt P05067).
T1 construct: purchased Bachem H-1368.1000
T1 sequence (P05067 672-713 limits assumed): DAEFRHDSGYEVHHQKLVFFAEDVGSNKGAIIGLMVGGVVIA
Put plainly: Sedimentation velocity AUC with fluorescence detection, Aβ42 and D3 mixtures. It counts as binding. How it is done:
All measurements were performed using an XL-A analytical ultracentrifuge (Beckman coulter, Brea, CA, USA). […] All samples were prepared in 20 mM sodium phosphate, 50 mM NaCl (pH 7.4) containing 0.0004% PEI (w/v). Samples were then loaded into 3-mm double-sector titanium cells (Nanolytics, Potsdam, Germany), with each sector containing a 100 μL sample. The detection system uses an excitation laser at 488 nm and an emission cut-off filter at 505 nm to collect fluorescence signals. The amplification factor was adjusted to the same value for all samples for comparability. […] Data was acquired at 20 nm radial resolution. After thorough thermal equilibration the centrifugation was carried out at 60,000 rpm (289,000× g) at 20 °C for 15 h. Carrier proteins, such as albumin and kappa casein, are usually recommended to minimize unspecific surface adsorption for fluorescence-based AUC [56]. All sedimentation profiles were subjected to the software package SEDFIT (version 15.01b) for data evaluation. The data was analyzed with the continuous distribution c(s) Lamm equation model to obtain the sedimentation coefficient distributions. Fitting parameters (Table S1) including the buffer density and viscosity were determined using Sednterp (version 20130813BETA). […] Final graphs were generated using GUSSI (version 1.2.1) and sedimentation coefficients were standardized to s-values in pure water at 20 °C (s20,w).

For series [3], the target named is T1, Aβ42. Put plainly: ThT assay, fibrillation kinetics of Aβ42. It counts as biochemical. Particulars: 50 mM NaCl pH 7.4, 20 °C, AmyloFit fit, triplicate. The method, then: ThT was added at a final concentration of 5 μM in all samples. The final volume of each sample was 200 μL. Samples were prepared on ice and were pipetted into a 96-well plate afterwards. The plate was sealed with a microplate sealing film. All measurements were conducted at 20 °C with a microplate reader (Infinite M200, Tecan, Männedorf, Switzerland). The fluorescence was recorded at an excitation wavelength (λex) of 445 nm and an emission wavelength (λem) of 485 nm every 30 min for 120 h. […] All samples were prepared in triplicate.
The ThT data was then subjected to the online server AmyloFit with a customized sigmoidal Equation (1) to determine the lag time tlag , and the half completion time of the aggregation process t1/2 , according to previous studies. (1) It=k0t+A/1+exp−kt−t1/2, where k0 represents the slope of the baseline, A is the amplitude, k denotes the apparent elongation rate constant. The lag time tlag can be derived from the intercept between the time axis and the tangent with slope k from the midpoint of the fitted sigmoidal curve, which is given by the following Equation (2):(2) tlag=t1/2−2/k

Setting [4] is: 20 μM Aβ42 with (label D3, 10:1) or without (label Aβ42) 2 μM D3, 55 mM Tris-HCl.

As for `CC(C)C[C@@H](NC(=O)[C@@H](CCCNC(=N)N)NC(=O)[C@H](NC(=O)[C@@H](CCCNC(=N)N)NC(=O)[C@H]1CCCN1C(=O)[C@H](N)CCCNC(=N)N)[C@H](C)O)C(=O)N[C@H](Cc1c[nH]cn1)C(=O)N[C@@H](C(=O)N[C@H](Cc1c[nH]cn1)C(=O)N[C@H](CCCNC(=N)N)C(=O)N[C@H](CC(N)=O)C(=O)N[C@H](CCCNC(=N)N)C(=O)N[C@@H](CCCCNC(=O)c1ccc2c(c1)C(=O)OC21c2ccc(O)cc2Oc2cc(O)ccc21)C(N)=O)[C@H](C)O` [FITC-D3] (H-[dR][dP][dR][dT][dR][dL][dH][dT][dH][dR][dN][dR]K(5FAM)-NH2; N-terminus and C-terminus assumed), the “Sedimentation coefficient s20,w of the labeled peptide alone” value in series [1] is given as 0.54 ± 0.02 S. Moreover, the “s20,w of the main peak of FITC-D3 with Aβ42” value in series [2] (0.2 μM FITC-D3 with 50-fold excess of Aβ42, 20 mM sodium phosphate, 50 mM NaCl pH 7.4, 0.0004% PEI, interpreted as 1:1 complex) is on record as 0.71 ± 0.04 S. In series [2] (0.2 μM FITC-D3 with Aβ42, c(s) analyses from five independent experiments, complexes with higher stoichiometries), the “Averaged s20,w of the new species between 1 and 2 S, FITC-D3 with Aβ42” value amounted to 1.45 ± 0.08 S.
As to “Aβ42: unlabeled amyloid-β peptide 42, Bachem product No. H-1368.1000 [reference compound]”, the “Lag time tlag of fibrillation kinetics” value in series [3] (20 μM Aβ42 with (label D3) or without (label Aβ42) 2 μM D3, 20 mM sodium phosphate, 5 μM ThT) was determined as 17.3 ± 1.6 h. For the same compound, in series [3] (setting [4]), the “Lag time tlag of fibrillation kinetics, Tris-HCl buffer” value stood at 14.5 ± 1.4 h and the “Slope k of fibrillation kinetics, Tris-HCl buffer” value amounted to 0.13 ± 0.01.
